Read-outs that look alike come from different tables or passages of the source.
What was measured:
[1] = target: T1, human Proprotein Convertase Subtilisin-like/Kexin type 9 (UniProt Q8NBP7 31-692); assay: ELISA
Target sequence in this assay (Q8NBP7 31-692): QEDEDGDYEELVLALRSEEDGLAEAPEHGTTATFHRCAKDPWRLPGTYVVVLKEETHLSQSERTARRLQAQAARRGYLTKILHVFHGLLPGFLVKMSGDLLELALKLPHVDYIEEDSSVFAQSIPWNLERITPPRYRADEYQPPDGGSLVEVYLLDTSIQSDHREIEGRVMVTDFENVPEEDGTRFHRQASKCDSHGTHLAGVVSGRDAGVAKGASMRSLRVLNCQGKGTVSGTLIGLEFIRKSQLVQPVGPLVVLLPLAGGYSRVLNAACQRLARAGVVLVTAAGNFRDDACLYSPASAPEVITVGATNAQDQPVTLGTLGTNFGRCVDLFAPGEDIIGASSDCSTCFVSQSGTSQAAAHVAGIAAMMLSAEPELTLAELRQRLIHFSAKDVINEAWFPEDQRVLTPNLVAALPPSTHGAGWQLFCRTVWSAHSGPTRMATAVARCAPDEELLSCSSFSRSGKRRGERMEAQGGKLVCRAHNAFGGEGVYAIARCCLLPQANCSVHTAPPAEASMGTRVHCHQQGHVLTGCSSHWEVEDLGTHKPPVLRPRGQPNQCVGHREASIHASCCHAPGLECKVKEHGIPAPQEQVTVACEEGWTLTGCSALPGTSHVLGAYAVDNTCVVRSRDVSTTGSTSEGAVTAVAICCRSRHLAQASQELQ

cynomolgus monkey PCSK9 [2] = target: T2, cynomolgus monkey PCSK9 (cynomolgus monkey, UniProt A0A7N9D9N8 150-747); assay: ELISA
T2 chain: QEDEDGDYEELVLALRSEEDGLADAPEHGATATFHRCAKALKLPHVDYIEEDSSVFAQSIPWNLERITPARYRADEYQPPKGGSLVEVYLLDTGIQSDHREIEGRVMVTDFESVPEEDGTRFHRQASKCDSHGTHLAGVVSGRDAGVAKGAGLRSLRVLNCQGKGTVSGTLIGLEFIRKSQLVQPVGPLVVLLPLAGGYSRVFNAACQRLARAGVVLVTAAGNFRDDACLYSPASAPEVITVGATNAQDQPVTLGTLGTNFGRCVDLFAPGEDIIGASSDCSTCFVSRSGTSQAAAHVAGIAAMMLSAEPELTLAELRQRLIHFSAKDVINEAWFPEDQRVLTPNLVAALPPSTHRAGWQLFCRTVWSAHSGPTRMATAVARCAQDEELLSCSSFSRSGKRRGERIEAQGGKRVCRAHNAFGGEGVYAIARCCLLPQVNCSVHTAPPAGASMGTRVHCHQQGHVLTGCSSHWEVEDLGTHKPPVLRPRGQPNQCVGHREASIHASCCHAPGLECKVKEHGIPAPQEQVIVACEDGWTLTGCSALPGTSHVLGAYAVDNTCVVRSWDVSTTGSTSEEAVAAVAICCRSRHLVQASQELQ

[3] = target: T1, human Proprotein Convertase …; assay: ELISA; remark: listed apart in the source
[4] = target: T1, human Proprotein Convertase …; assay: ELISA; remark: listed apart in the source
[5] = target: T1, human Proprotein Convertase …; assay: PCSK9-LDLR blocking ELISA
cynomolgus monkey PCSK9 [6] = target: T2, cynomolgus monkey PCSK9; assay: ELISA
[7] = target: T1, human Proprotein Convertase …; assay: ELISA; remark: listed apart in the source

B1: Ab5 (antibody, V domains shown)
VH: QSVEESGGRLVTPGTPLTLTCTVSGFSLSSYAMSWVRQAPGKGLEWIGIISNSGTTYYASWAKGRFTISKTSTTVDLKITSPTTEDTATYFCARGIYWYWRVFNLWGPGTLVTVSS
VL: AVLTQTPSPVSAAVGGTVTINCQASQSVYNNLLSWYQQKPGQPPKLLIYDASNLASGVPDRFSGSGSGTQFTLTISGVQCDDAATYYCLGGYDDDADNAFGGGTEVVVKR
- EC50 [1]: 0.116 nM
- EC50 (cynomolgus monkey PCSK9 [2]): 0.169 nM

B2: Ab6 (antibody, V domains shown)
VH: QEQLEESGGDLVKPEGSLTLTCTASGFSFSSNYWICWVRQAPGKGLEWIGCIRDGGGTYYASWAKGRLTISMTSSTTVTLQLNSLTAADTATYFCASDINDGWLGQFNLWGPGTLVTVSS
VL: DIVMTQTPASVEVAVGGTVTIKCQASQSISAYLAWYQQKPGQPPKLLIYRAYTLASGVPSRFKGSGSGTQFTLTISDLECADAATYYCQSYYSVTTNTYGNTFGGGTEVVVKR
- EC50 [1]: 0.117 nM
- EC50 (cynomolgus monkey PCSK9 [2]): 0.112 nM

B3: Ab10 (antibody, V domains shown)
VH: QEQLEESGGDLVKPEGSLTLTCTASGFSFSSSYWICWVRQAPGKGLEWIACIRAGGGNYYANWAKGRFTISRTSSTTVTLQMTSLTAADTATYFCASDINDGWLGQFNLWGPGTLVTVSS
VL: NIVMTQTPASVEAAVGGTVTIKCQASQSISNYLAWYQQKPGQPPKLLIYRTSTLASGVPSRFKGSGSGTQFTLTISDLECADAATYYCQSYYSVTTVAYGNTFGGGTEVVVKR
- EC50 [3]: 0.126 nM

B4: Ab8 (antibody, V domains shown)
VH: QEQLVESGGGLVQPEGSLTLTCTASGFSFTSDYYMCWVRQAPGKGLEWIGCISTGDGSTYYASWAKGRFTISKPSSTTVTLQMTRLTAADTATYFCARDRYYSYAYGAYVYASDLWGPGTLVTVSS
VL: DIVMTQTPASVSEPVGGTVTINCQASESIRNYLSWYQQKPGQRPKLLIYGASTLASGVPSRFKGSGSGTDFTLTISDLECADAATYYCQSNYGISSRSYVNGFGGGTEVVVKR
- EC50 [1]: 0.0874 nM
- EC50 (cynomolgus monkey PCSK9 [2]): 0.106 nM

B5: Ab24 (antibody, V domains shown)
VH: QSLEESGGDLVKPGASLTLTCKASGFSFSSGYYMCWVRQAPGKGLEWIACIYAGSGGSTFFANWAKGRFTISKTSSTTVTLQMTSLTAADTATYFCARDGGYAGYGYAFFNLWGPGTLVTVSS
VL: DVVMTQTPASVSEPVGGTVTIKCQASERIYSGLAWYQQKPGQPPKLLIYGASTLASGVPSRFKGSGSGTDFTLTISDLECDDAAIYYCQATYYGSSYPNVFGGGTEVVVKR
- EC50 [4]: 0.178 nM

B6: Ab23 (antibody, V domains shown)
VH: QSLEESGGDLVKPGASLTLTCKASGFSFSSGYYMCWVRQAPGKGLEWIACIYAGSGGSTFFANWAKGRFTISKTSSTTVTLQMTSLTAADTATYFCARDGGYAGYGYAFFNLWGPGTLVTVSS
VL: DVVMTQTPASVSEPVGGTVTIKCQASERIYSGLAWYQQKPGQPPKLLIYGASTLASGVPSRFKGSGSGTDFTLTISDLECDDAAIYYCQCTYYGSSYPNVFGGGTEVVVKR
- IC50 [5]: 0.81 nM

B7: Ab15 (antibody, V domains shown)
VH: QEQLEESGGDLVKPEGSLTLTCTASGFSFSSSYWICWVRQAPGKGLEWIACIDAGNSGSTYYASWAKGRFTISKASSTTVTLQMTSLTAADTATYFCASDLNDGWLGQFNLWGPGTLVTVSS
VL: NIVMTQTPSPVSGAVGGTVTIKCQASQSISDYLAWYQQKPGQPPKLLIYRASTLASGVPSRFRGSGSGTEYTLTITDLECADAATYYCQSYYSVTTNTYGNTFGGGTEVVVKR
- EC50 (cynomolgus monkey PCSK9 [6]): 0.161 nM

B8: Ab13 (antibody, V domains shown)
VH: QSVEESGGRLVTPGTPLTLTCTVSGIDLSTYGVGWVRQAPGKGLEYIGIISSSGSTYYASWAKGRFTISKTSSTTVDLKMTSLTTEDTATYFCARDWSSTTGYYGYFNMWGPGTLVTVSS
VL: AFELTQTPSPVSAAVGGTVTIKCQASQSISTALAWYQQKPGQPPKLLIYGASNLESGVPSRFSGSGSGTQFTLTISDLECADAAIYYCQSSYGSSTLAFGGGTEVVVKR
- EC50 [3]: 0.124 nM

B9: Ab7 (antibody, V domains shown)
VH: EVQLVESGGGLVQPGGSLRLSCAASGFTVSSNYWICWVRQAPGKGLEWIGCIRDGGGTYYASSAKGRFTISRDNSKNTLYLQMNSLRAEDTAVYYCASDINDGWLGQFNLWGQGTLVTVSS
VL: DIVMTQSPSSLSASVGDRVTIKCQASQSISAYLAWYQQKPGKVPKLLIYRAYTLASGVPSRFSGSGSGTDFTLTISSLQPEDVATYYCQSYYSVTTNTYGNTFGGGTKVEIKR
- EC50 (cynomolgus monkey PCSK9 [2]): 0.103 nM
- EC50 [3]: 0.104 nM

B10: Ab9 (antibody, V domains shown)
VH: QSVEESGGRLVTPGTPLTLTCTVSGIDLSSYAMGWVRQAPGKGLEYIGIIVSYGPTYYASWAKGRFTISKTSTTVDLKITSPTAEDTATYFCARDLDANSSGYYGCFNIWGQGTLVTVSS
VL: AVVLTQTPASVSAAVGGTVTIKCQASQSISTALAWYQQKPGQPPKLLIYAASPLASGVSSRFKSSGSGTEFTLTISDLECADAATYYCQSYYGSSNIAFGGGTELEILR
- EC50 [1]: 0.098 nM

B11: Ab22 (antibody, V domains shown)
VH: EVQLVESGGGLVQPGGSLRLSCAASGFSLSSYAMNWVRQAPGKGLEWIGAIRSSGATFFASSVNGRFTISRDNSKNTVYLQMNSLRAEDTAVYYCARDTNDGWYINRLDLWGQGTLVTVSS
VL: AVLTQSPSTLSASVGDRVTITCQSSKSVYSNYLSWFQQKPGKAPKFLIYKASTLASGVPSRFSGSGSGTEFTLTISSLQPDDFATYYCAGGDTNIADNAFGGGTKVEIKR
- EC50 [7]: 0.0492 nM

Reference: patent US20130302399A1 (published 2013)
